± gives the standard deviation of the averaged measurements.

The subject of the data set is Saccharomyces cerevisiae. Briefly: protein stability index of tFT-peptide fusion (C-terminal peptide) (PSI (0-1 scale)); higher = more stable (slower turnover). The following applies: temperature: 30 C. How it is done: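 MPS profiling in S. cerevisiae of the yeast C-terminome library: the last 12 aa of each annotated ORF are fused to the C-terminus of a sfGFP-mCherry timer, after a GGGS linker. Cells are FACS-sorted into 8 mCherry/sfGFP bins and deep-sequenced. PSI runs from 0 (unstable) to 1 (stable); wild type and das1Δ backgrounds, two technical replicates each.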

Setting [1] is: genetic background: das1 deletion.

As for IGGLKREAEASA [GDH2 C-terminal 12 aa], the protein stability index reads like this: under setting [1], 0.695 ± 0.041; (genetic background: wild type) 0.719 ± 0.0075.

In the case of IHDFPKSHIVDF [IKI3 C-terminal 12 aa], the protein stability index reads like this: under setting [1], 0.7325 ± 0.0027; (genetic background: wild type) 0.733 ± 0.025.

In turn, “IIRPLVLKNFII [YDR371C-A C-terminal 12 aa]” came in with a protein stability index under setting [1] of 0.5029 ± 0.0013 and a protein stability index (genetic background: wild type) of 0.116 ± 0.0054.

In the case of IIWEKRNPEQKI [ERG11 C-terminal 12 aa], the protein stability index is 0.702 ± 0.023 under setting [1] and 0.7138 ± 0.0069 (genetic background: wild type).

On to IKARNMKIDRTQ [COG4 C-terminal 12 aa], for which the protein stability index runs as follows: under setting [1], 0.681 ± 0.018; (genetic background: wild type) 0.695 ± 0.041.

As to IKGWFVNGQVPR [PEX17 C-terminal 12 aa], the protein stability index is, setting by setting: under setting [1], 0.716 ± 0.0072; (genetic background: wild type) 0.674 ± 0.029.

On to IKLEDAKGTHIK [RAD59 C-terminal 12 aa], for which the protein stability index by setting is: under setting [1], 0.695 ± 0.013; (genetic background: wild type) 0.6411 ± 0.0032.

Turning to IKMIKELGNHRL [RMD6 C-terminal 12 aa], the protein stability index was 0.684 ± 0.0078 under setting [1] and 0.646 ± 0.026 (genetic background: wild type).

Consider IKSLFSLAKEAS [MSC7 C-terminal 12 aa], for which the protein stability index was 0.703 ± 0.01 under setting [1] and 0.5867 ± 0.0023 (genetic background: wild type).

As to IKVDNIVHIRND [YFH7 C-terminal 12 aa], the protein stability index worked out at 0.6928 ± 0.0038 under setting [1] and 0.723 ± 0.039 (genetic background: wild type).

Take ILEAWEKVDDSL [SNX4 C-terminal 12 aa]: the protein stability index stood at 0.734 ± 0.013 under setting [1] and 0.734 ± 0.016 (genetic background: wild type).

ILQCFTDEILNC [NDJ1 C-terminal 12 aa]: the protein stability index turned out to be 0.691 ± 0.0087 under setting [1] and 0.68 ± 0.022 (genetic background: wild type).

On to ILRILANSNDDN [BXI1 C-terminal 12 aa], for which the protein stability index by setting is: under setting [1], 0.699 ± 0.036; (genetic background: wild type) 0.6562 ± 0.0062.

Take ILSWYFLETVAV [YMR254C C-terminal 12 aa]: the protein stability index stood at 0.317 ± 0.024 under setting [1] and 0.34 ± 0.018 (genetic background: wild type).

INEDNKAYSLDY [RIM4 C-terminal 12 aa]: the protein stability index runs as follows: under setting [1], 0.69877 ± 0.00035; (genetic background: wild type) 0.722 ± 0.026.

As for IPLTEFDLSDSK [YMR253C C-terminal 12 aa], the protein stability index was found to be 0.701 ± 0.0095 under setting [1] and 0.73422 ± 0.00045 (genetic background: wild type).

As to IQESRFNFYLIT [RKM5 C-terminal 12 aa], the protein stability index amounted to 0.683 ± 0.023 under setting [1] and 0.6241 ± 0.0035 (genetic background: wild type).

Turning to IRDEGLNNLDTA [YPL257W C-terminal 12 aa], the protein stability index is, setting by setting: under setting [1], 0.6944 ± 0.006; (genetic background: wild type) 0.704 ± 0.019.

As for IRLFRSARRWVG [ADE6 C-terminal 12 aa], the protein stability index runs as follows: under setting [1], 0.7017 ± 0.0011; (genetic background: wild type) 0.66 ± 0.0083.

In the case of IRSRGRLKEVYF [SLX5 C-terminal 12 aa], the protein stability index under setting [1] turned out to be 0.732 ± 0.026 and the protein stability index (genetic background: wild type) amounted to 0.68566 ± 0.00055.

In the case of ISDNVPKEAIIM [PSA1 C-terminal 12 aa], the protein stability index by setting is: under setting [1], 0.686 ± 0.023; (genetic background: wild type) 0.631 ± 0.034.

As for ISGGTFGFRSEI [HBT1 C-terminal 12 aa], the protein stability index by setting is: under setting [1], 0.696 ± 0.02; (genetic background: wild type) 0.7165 ± 0.0021.

Regarding ISIVACALWLVF [DCW1 C-terminal 12 aa], the protein stability index stood at 0.288 ± 0.003 under setting [1] and 0.291 ± 0.0036 (genetic background: wild type).

For the sequence ISKVSNTRVCCT [YAL004W C-terminal 12 aa], the protein stability index runs as follows: under setting [1], 0.6431 ± 0.0031; (genetic background: wild type) 0.654 ± 0.017.

In turn, “ISSKSIPSVDDK [YIL071W-A C-terminal 12 aa]” displayed a protein stability index under setting [1] of 0.677 ± 0.025 and a protein stability index (genetic background: wild type) of 0.706 ± 0.067.

For the sequence ISVSSGIENFAT [YJL202C C-terminal 12 aa], the protein stability index came out at 0.692 ± 0.042 under setting [1] and 0.654 ± 0.019 (genetic background: wild type).

As to ITFIASLMTLNK [SAC6 C-terminal 12 aa], the protein stability index came to 0.66916 ± 0.0005 under setting [1] and 0.679 ± 0.021 (genetic background: wild type).

Turning to “ITSQDILASTDY [YHL009W-B C-terminal 12 aa]”, the protein stability index by setting is: under setting [1], 0.688 ± 0.015; (genetic background: wild type) 0.711 ± 0.027.

“ITSYNFLGVPFK [YLR406C-A C-terminal 12 aa]”: the protein stability index under setting [1] turned out to be 0.746 ± 0.018 and the protein stability index (genetic background: wild type) stood at 0.724 ± 0.043.

IVALILNTRGSE [VMA11 C-terminal 12 aa]: the protein stability index turned out to be 0.683 ± 0.0096 under setting [1] and 0.668 ± 0.028 (genetic background: wild type).

For IVKAVKEVLSIE [PDB1 C-terminal 12 aa], the protein stability index by setting is: under setting [1], 0.683 ± 0.0044; (genetic background: wild type) 0.667 ± 0.044.

As to IVLPENIPLLYK [YJL195C C-terminal 12 aa], the protein stability index came out at 0.694 ± 0.037 under setting [1] and 0.672 ± 0.023 (genetic background: wild type).

As for IVPLSELEKTLI [XKS1 C-terminal 12 aa], the protein stability index runs as follows: under setting [1], 0.696 ± 0.016; (genetic background: wild type) 0.687 ± 0.0097.

With IVPSQGKKVKFD [NOP13 C-terminal 12 aa], the protein stability index reads like this: under setting [1], 0.679 ± 0.0068; (genetic background: wild type) 0.676 ± 0.011.

With IYKCEDERIDYF [KOG1 C-terminal 12 aa], the protein stability index under setting [1] worked out at 0.6594 ± 0.00099 and the protein stability index (genetic background: wild type) worked out at 0.726 ± 0.015.

Turning to IYLLSDYEKDNI [CMR2 C-terminal 12 aa], the protein stability index reads like this: under setting [1], 0.709 ± 0.044; (genetic background: wild type) 0.684 ± 0.0073.

For the sequence KAELDRYKRENQ [SEM1 C-terminal 12 aa], the protein stability index runs as follows: under setting [1], 0.7052 ± 0.0058; (genetic background: wild type) 0.709 ± 0.049.

KAFVIGAIALVA [YMR317W C-terminal 12 aa]: the protein stability index is 0.331 ± 0.01 under setting [1] and 0.341 ± 0.0043 (genetic background: wild type).

As for KALELILNILEH [SNU56 C-terminal 12 aa], the protein stability index runs as follows: under setting [1], 0.683 ± 0.033; (genetic background: wild type) 0.667 ± 0.012.

Consider KARLTEEQHRHE [CWC21 C-terminal 12 aa], for which the protein stability index reads like this: under setting [1], 0.705 ± 0.0052; (genetic background: wild type) 0.697 ± 0.019.

KAVEFTTTALSS [MKT1 C-terminal 12 aa]: the protein stability index turned out to be 0.715 ± 0.0089 under setting [1] and 0.747 ± 0.11 (genetic background: wild type).

KCQTKHTFTGLI [YGR269W C-terminal 12 aa]: the protein stability index is, setting by setting: under setting [1], 0.695 ± 0.0072; (genetic background: wild type) 0.723 ± 0.021.

As for KDEINYLNSKLK [SPA2 C-terminal 12 aa], the protein stability index is, setting by setting: under setting [1], 0.692 ± 0.07; (genetic background: wild type) 0.706 ± 0.083.

KDVIVDHHSDLN [SAP4 C-terminal 12 aa]: the protein stability index turned out to be 0.706 ± 0.048 under setting [1] and 0.701 ± 0.052 (genetic background: wild type).

With KEQEESEKDKEN [BFR1 C-terminal 12 aa], the protein stability index reads like this: under setting [1], 0.732 ± 0.015; (genetic background: wild type) 0.69 ± 0.05.

KFDEKTATLVDE [YDL144C C-terminal 12 aa] returned a protein stability index under setting [1] of 0.692 ± 0.027 and a protein stability index (genetic background: wild type) of 0.675 ± 0.022.

As for KFETPGEYKKRI [LCL3 C-terminal 12 aa], the protein stability index by setting is: under setting [1], 0.697 ± 0.029; (genetic background: wild type) 0.712 ± 0.019.

Consider “KFPLSVKKKIRI [YNR075C-A C-terminal 12 aa]”, for which the protein stability index is 0.6821 ± 0.0027 under setting [1] and 0.697 ± 0.066 (genetic background: wild type).

On to KGKLITKVNNEE [YML131W C-terminal 12 aa], for which the protein stability index reads like this: under setting [1], 0.648 ± 0.029; (genetic background: wild type) 0.628 ± 0.04.

Consider KGPSKTALLSKK [PKP1 C-terminal 12 aa], for which the protein stability index under setting [1] is 0.707 ± 0.021 and the protein stability index (genetic background: wild type) was 0.711 ± 0.033.

Values taken from the supplement of paper PMC10724198.
